Assay results reported in US20240327523A1 (University of California, published 2024).

T1: Fc-CD94 (biotinylated Fc fusion protein with the extracellular domain of human CD94 fused at the C-terminal … (human, UniProt Q13241 32-179, biotinylated on the biotin-acceptor-tag (~90% biotinylation)))
T1 construct: extracellular domain; Expressed in Expi293 cells; also called CD94 Fc fusion protein; Fc-CD94 fusion protein; not shown: biotin-acceptor-tag at the N-terminus; human IgG1 Fc; TEV proteolysis site between the ECD and Fc-domain
T1 sequence (looked up): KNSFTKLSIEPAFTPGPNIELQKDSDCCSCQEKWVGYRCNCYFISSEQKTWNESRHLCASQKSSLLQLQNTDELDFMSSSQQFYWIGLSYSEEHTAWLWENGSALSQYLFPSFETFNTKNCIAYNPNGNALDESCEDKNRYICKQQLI

T2: Fc-CD94 (biotinylated Fc fusion protein with the extracellular domain of human CD94 fused at the C-terminal … (human, UniProt Q13241 32-179, biotinylated on the biotin-acceptor-tag (~90% biotinylation)))
T2 chain: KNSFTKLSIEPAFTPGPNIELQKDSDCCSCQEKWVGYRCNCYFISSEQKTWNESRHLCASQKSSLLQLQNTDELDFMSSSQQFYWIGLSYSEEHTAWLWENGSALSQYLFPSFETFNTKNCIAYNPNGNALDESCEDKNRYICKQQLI

T3: human CD94 expressed on Ba/F3 cells (human, UniProt Q13241 1-179)
T3 construct: whole, on cells; Mouse Ba/F3 cells stably transduced with a retroviral vector encoding human CD94; also called Ba/F3 transfectants expressing human CD94
T3 sequence (looked up): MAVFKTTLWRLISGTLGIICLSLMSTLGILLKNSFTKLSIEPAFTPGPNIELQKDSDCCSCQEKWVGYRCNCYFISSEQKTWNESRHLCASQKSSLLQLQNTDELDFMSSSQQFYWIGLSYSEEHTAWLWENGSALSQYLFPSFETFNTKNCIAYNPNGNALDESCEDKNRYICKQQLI


Legend:
[1] = target: T1, Fc-CD94 (biotinylated Fc fusion protein …); assay: multipoint ELISA of purified Fab
[2] = target: T2, Fc-CD94 (biotinylated Fc fusion protein …); assay: ELISA
[3] = target: T2, Fc-CD94 (biotinylated Fc fusion protein …); assay: BLI (Octet)
[4] = target: T3, human CD94 expressed on Ba/F3 cells; assay: flow cytometry staining of Ba/F3 transfectants, PE-conjugated anti-human IgG1
Method: Mouse Ba/F3 cells were stably transduced with retroviral vectors encoding human CD94 or with human CD94, human NKG2C, and human DAP12 as described in Lanier, L. L., B. C. Corliss, J. Wu, and J. H. Phillips. 1998. Association of DAP12 with activating CD94/NKG2C NK cell receptors. Immunity 8:693-701. PMID: 9655483. The Ba/F3 transfectants were incubated with phosphate buffered saline (unstained) or with the rab22 JIS002 rab 22 or JSI002 rab 23 antibodies, washed, and then stained with PE-conjugated anti-human IgG1 using standard methods.

[5] = target: T1, Fc-CD94 (biotinylated Fc fusion protein …); assay: assay not given; IgG affinity was measured by Octet BLI on immobilized Fc-CD94 (FIG. 3)
Method: An octet assay was used to measure the affinity of IgG for the two binders JLS002-rAB22 and JLS002-rAB23. An Octet RED384 (ForteBio) instrument was used to measure the affinity of IgG for the two binders, JLS002-rAB22 and JLS002-rAB23. Fc-CD94 fusion protein was immobilized on a bio-layer interfrometry biosensor coated with streptavidin.
After blocking with PBST buffer (PBS+[…]) containing 10 μM of biotin, the IgGs being tested were loaded for 15 minutes followed by change to PBST buffer without IgG for ˜30 minutes. The kinetic binding curve was recorded.

Binder | binding result [1] | EC50 [2] [nM] | Kd [3] [nM] | binding result [4] | binding result [5]
JLS002-rAB22 Fab (Fab, V domains shown, Fab expressed and purified after phage selection) VH: EVQLVESGGGLVQPGGSLRLSCAASGFNVYSSSIHWVRQAPGKGLEWVAYISSYSGYTYYADSVKGRFTISADTSKNTAYLQMNSLRAEDTAVYYCARGRYQGMDYWGQGTLVTVSS VL: DIQMTQSPSSLSASVGDRVTITCRASQSVSSAVAWYQQKPGKAPKLLIYSASSLYSGVPSRFSGSRSGTDFTLTISSLQPEDFATYYCQQYAYHLITFGQGTKVEIK | binds | 3.42 | – | – | –
JLS002-rAB22 IgG (antibody, V domains shown, also called rab22 JIS002 rab 22) VH: EVQLVESGGGLVQPGGSLRLSCAASGFNVYSSSIHWVRQAPGKGLEWVAYISSYSGYTYYADSVKGRFTISADTSKNTAYLQMNSLRAEDTAVYYCARGRYQGMDYWGQGTLVTVSS VL: DIQMTQSPSSLSASVGDRVTITCRASQSVSSAVAWYQQKPGKAPKLLIYSASSLYSGVPSRFSGSRSGTDFTLTISSLQPEDFATYYCQQYAYHLITFGQGTKVEIK | – | – | 1.74 | binds | binds
JLS002-rAB23 Fab (Fab, V domains shown, Fab expressed and purified after phage selection) VH: EVQLVESGGGLVQPGGSLRLSCAASGFNVYSSSIHWVRQAPGKGLEWVASISSYSGSTSYADSVKGRFTISADTSKNTAYLQMNSLRAEDTAVYYCARYGYYMSGAMDYWGQGTLVTVSS VL: DIQMTQSPSSLSASVGDRVTITCRASQSVSSAVAWYQQKPGKAPKLLIYSASSLYSGVPSRFSGSRSGTDFTLTISSLQPEDFATYYCQQKKAYSLITFGQGTKVEIK | binds | 2.98 | – | – | –
JLS002-rAB23 IgG (antibody, V domains shown, also called JSI002 rab 23) VH: EVQLVESGGGLVQPGGSLRLSCAASGFNVYSSSIHWVRQAPGKGLEWVASISSYSGSTSYADSVKGRFTISADTSKNTAYLQMNSLRAEDTAVYYCARYGYYMSGAMDYWGQGTLVTVSS VL: DIQMTQSPSSLSASVGDRVTITCRASQSVSSAVAWYQQKPGKAPKLLIYSASSLYSGVPSRFSGSRSGTDFTLTISSLQPEDFATYYCQQKKAYSLITFGQGTKVEIK | – | – | 0.94 | binds | binds
